Patent publication US20090053761A1, “Polypeptide Mutagenesis Method” (University College Cardiff Consultants Ltd., priority 2005, published 2009)

Test system: E. coli
Test: TEM-1 β-lactamase activity in vivo: ampicillin MIC of BLA DEL library colonies
Format: cell-based, Escherichia coli DH5α
Details: minimum ampicillin concentration preventing growth of E. coli DH5α carrying the bla variant in pNOM; LB agar, 37° C., 16 hr
Method: The MuDel-inserted pNOM plasmids were isolated from each of the 22 colonies and equal amounts of each plasmid were pooled and subjected to restriction digestion with MlyI followed by agarose gel electrophoresis. The band corresponding to the linear pNOM minus MuDel was isolated and purified after agarose gel electrophoresis. Intramolecular ligation was performed using T4 DNA ligase and approximately 10 ng of linear pNOM (reaction conditions described above). The reaction was left at 25° C. for 10 min followed by 10 hr at 16° C. E. coli DH5α cells were transformed by electroporation with 1 μl of the ligation mixture. 500 μl of SOC medium was added to the cells immediately after electroporation and the cells were incubated at 37° C. for 1 hr. 50 μl and 500 μl of the recovering transformed cell cultures were plated on LB agar plates containing 15 μg/ml ampicillin. The plates were left overnight at 37° C. and 94 BLA^DEL library and two pNOM-containing colonies were selected and transferred to 96 deep-well culture plates containing 200 μl LB medium and 15 μg/ml ampicillin. The cells were grown for 16 hr at 37° C. with vigorous shaking. Sterile glycerol was added to 10% (v/v) for storage at −80° C.
The TEM-1 β-lactamase activity of each colony was measured in vivo by determining the minimum inhibitory concentration (MIC) of ampicillin that prevents E. coli growth. […]

B1: Wild-type (pNOM): wild-type TEM-1 β-lactamase encoded by the bla gene of pNOM, control (protein, UniProt P62593 24-286, looked up)
Beta-lactamase TEM: HPETLVKVKDAEDQLGARVGYIELDLNSGKILESFRPEERFPMMSTFKVLLCGAVLSRVDAGQEQLGRRIHYSQNDLVEYSPVTEKHLTDGMTVRELCSAAITMSDNTAANLLLTTIGGPKELTAFLHNMGDHVTRLDRWEPELNEAIPNDERDTTMPAAMATTLRKLLTGELLTLASRQQLIDWMEADKVAGPLLRSALPAGWFIADKSGAGERGSRGIIAALGPDGKPSRIVVIYTTGSQATMDERNRQIAEIGASLIKHW
For B1, the “Amp MIC” value was over 10000 µg/mL.
